# From the array DNA melting data of Ke et al.
# Assay: melting temperature; melt of duplexes
# Details: sodium 0.0675 M; strand 1 µM
row,Substance,Tm [°C]
1,CGACGTGCCCTATGTGCTG+CAGCACATGCCGCACGTCG ((((((((...((((((((+))))))))...)))))))),47.7
2,CGACGTGCTCGATGTGCTG+CAGCACATCCTGCACGTCG ((((((((..(((((((((+)))))))))..)))))))),53
3,CGACGTGCCACATGTGCTG+CAGCACATATAGCACGTCG ((((((((.(.((((((((+)))))))).).)))))))),48.4
4,CGACGTGCCAGATGTGCTG+CAGCACATCCTGCACGTCG ((((((((..(((((((((+)))))))))..)))))))),54.3
5,CGACGTGCGCTATGTGCTG+CAGCACATCGAGCACGTCG ((((((((.(.((((((((+)))))))).).)))))))),53.1
6,CGACGTGCGTCATGTGCTG+CAGCACATTTAGCACGTCG ((((((((...((((((((+))))))))...)))))))),51.6
7,CGACGTGCTCTATGTGCTG+CAGCACATGTGGCACGTCG ((((((((...((((((((+))))))))...)))))))),50.4
8,CGACGTGCACGATGTGCTG+CAGCACATGTAGCACGTCG ((((((((...((((((((+))))))))...)))))))),48.7
9,CGACGTGCAGTATGTGCTG+CAGCACATCATGCACGTCG (((((((((..((((((((+))))))))..))))))))),51.4
10,CGACGTGCGTTATGTGCTG+CAGCACATGCCGCACGTCG (((((((((..((((((((+))))))))..))))))))),53.7
11,CGACGTGCATAATGTGCTG+CAGCACATCGAGCACGTCG ((((((((...((((((((+))))))))...)))))))),48.5
12,CGACGTGCATTATGTGCTG+CAGCACATATGGCACGTCG ((((((((..(((((((((+)))))))))..)))))))),51.8
13,CGACGTGCTTGATGTGCTG+CAGCACATCCTGCACGTCG ((((((((..(((((((((+)))))))))..)))))))),54.5
14,CGACGTGCTCGATGTGCTG+CAGCACATTACGCACGTCG ((((((((...((((((((+))))))))...)))))))),48.6
15,CGACGTGCATAATGTGCTG+CAGCACATTTCGCACGTCG ((((((((..(((((((((+)))))))))..)))))))),51
16,CGACGTGCCGCATGTGCTG+CAGCACATTCTGCACGTCG ((((((((.(.((((((((+)))))))).).)))))))),48.8
17,CGACGTGCCTAATGTGCTG+CAGCACATAGCGCACGTCG ((((((((...((((((((+))))))))...)))))))),50.3
18,CGACGTGCAGAATGTGCTG+CAGCACATCAAGCACGTCG ((((((((...((((((((+))))))))...)))))))),50.6

row,Substance,Tm [°C]
1,CGACGTGCCAAATGTGCTG+CAGCACATATGGCACGTCG ((((((((((.((((((((+)))))))).)))))))))),56.9
2,CGACGTGCATGATGTGCTG+CAGCACATCTGGCACGTCG ((((((((..(((((((((+)))))))))..)))))))),56.1
3,CGACGTGCTACATGTGCTG+CAGCACATGGAGCACGTCG (((((((((.(((((((((+))))))))).))))))))),61.7
4,CGACGTGCTGCATGTGCTG+CAGCACATTGGGCACGTCG ((((((((...((((((((+))))))))...)))))))),50.1
5,CGACGTGCGGAATGTGCTG+CAGCACATGTCGCACGTCG (((((((((..((((((((+))))))))..))))))))),57
6,CGACGTGCGCTATGTGCTG+CAGCACATCACGCACGTCG (((((((((..((((((((+))))))))..))))))))),53.3
7,CGACGTGCCGAATGTGCTG+CAGCACATCAAGCACGTCG ((((((((...((((((((+))))))))...)))))))),49.6
8,CGACGTGCGTTATGTGCTG+CAGCACATGTGGCACGTCG ((((((((...((((((((+))))))))...)))))))),49.6
9,CGACGTGCTCAATGTGCTG+CAGCACATTGAGCACGTCG (((((((((((((((((((+))))))))))))))))))),64.2
10,CGACGTGCTTGATGTGCTG+CAGCACATTCCGCACGTCG ((((((((...((((((((+))))))))...)))))))),48.5
11,CGACGTGCTACATGTGCTG+CAGCACATGGCGCACGTCG ((((((((..(((((((((+)))))))))..)))))))),54.7
12,CGACGTGCGGAATGTGCTG+CAGCACATCTGGCACGTCG ((((((((...((((((((+))))))))...)))))))),52.3
13,CGACGTGCGTAATGTGCTG+CAGCACATGTCGCACGTCG (((((((((..((((((((+))))))))..))))))))),56
14,CGACGTGCCCAATGTGCTG+CAGCACATAATGCACGTCG ((((((((...((((((((+))))))))...)))))))),47.6
15,CGACGTGCAGGATGTGCTG+CAGCACATTGAGCACGTCG ((((((((...((((((((+))))))))...)))))))),50.6
16,CGACGTGCCCGATGTGCTG+CAGCACATCCCGCACGTCG ((((((((..(((((((((+)))))))))..)))))))),51.9
17,CGACGTGCGTAATGTGCTG+CAGCACATGGAGCACGTCG ((((((((...((((((((+))))))))...)))))))),60.7
18,CGACGTGCCTTATGTGCTG+CAGCACATGAAGCACGTCG ((((((((.(.((((((((+)))))))).).)))))))),50.5
